The values that follow come from US20100081621.

This data set deals with APOBEC3G D316R/D317R D316R,D317R (Homo sapiens) (UniProt Q9HC16). The note with it: deamination; middle and 3' C deaminated at about same rate.
Sequence of APOBEC3G D316R/D317R D316R,D317R (Homo sapiens) (Q9HC16 whole entry D316R/D317R): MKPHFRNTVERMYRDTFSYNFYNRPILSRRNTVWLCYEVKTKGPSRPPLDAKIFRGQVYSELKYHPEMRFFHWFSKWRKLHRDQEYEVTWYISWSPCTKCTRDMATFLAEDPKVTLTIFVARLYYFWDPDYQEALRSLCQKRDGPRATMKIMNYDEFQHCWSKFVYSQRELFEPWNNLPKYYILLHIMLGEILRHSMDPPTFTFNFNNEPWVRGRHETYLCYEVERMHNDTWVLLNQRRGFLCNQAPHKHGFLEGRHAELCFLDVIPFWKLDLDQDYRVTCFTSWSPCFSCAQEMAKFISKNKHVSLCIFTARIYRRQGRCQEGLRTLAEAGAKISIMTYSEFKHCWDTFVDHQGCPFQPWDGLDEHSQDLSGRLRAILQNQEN

Turning to “FdT ssDNA deamination substrate with CCC motif”, the activity was 1.6 fold of wt.
